Target: His6‐tagged DP1 (small subunit of DNA polymerase D) of Thermococcus sp. 4557 (Thermococcus sp. 4557)
Experiment: SEC; 100 µg of each protein or mixture on Superdex‐200 HR10/30 in 25 mM Tris‐HCl pH 7.5, 100 mM NaCl, 10% glycerol; fractions on SDS–PAGE, Coomassie

stoichiometry N: 2
Substance: His6‐tagged DP1 (small subunit of DNA polymerase D) of Thermococcus sp. 4557 (enzyme)

Source: paper PMC6741145
